Here are results for 16 molecules from patent US20240327502A1 (Merck Sharp & Dohme, published 2024).

Where a chain is given by its changes, count along the chain named.

The chains are these.
B1: M2D11 (antibody, V domains shown)
VH: QVQLQQWGAGLLKPSETLSLTCAVSGGSFSGYHWTWIRQPPGKGLEWIGEVDHGGNTNYNPSLMSRVTISVDMSTKQFSLRLTSMTAADTAVYYCARGFGVVINNWFDPWGQGTLVTVTS
VL: DIQMTQSPSSLSASVGDRVTITCRASQTISSYLNWYQQKPGKAPNLLIYTVSTLQSGVPSRFSGSGSGTDFTLTISSLQPEDFATYYCQQSYGAPYTFGQGTKLEIK
notes: IgG
B2: M2C07 (antibody, V domains shown)
VH: QVQLQESGPGLVAPSQTLSLICDVSGDSVTSGAYSWSWIRQHPVKGLEWIAYINYSGRTNYNPSLQSRLVISVDRSKNQFSLRLSSVTAADTAVYYCARANVVGYSGFYFDYWGQGTLVAVSS
VL: DIQMTQSPSSLSASVGDTVTITCRASQSVGAYLNWYQQKPGKAPKLLVFAGSSLQTGVPSRFSGRGSRTEFTLTITNLQREDFASYYCQQSLGDFLTFGGGTKVEIK
notes: IgG
B3: M2D03 (antibody, V domains shown)
VH: B2 VH with Y34H, F108Y
VL: B2 VL with T18R, V48I, T76S, S85T
notes: IgG
B4: M2C06 (antibody, V domains shown)
VH: QVQLVQSGAEVKKPGSSVKVSCRPSGGTFSNDILSWVRQAPGQRLEWMGRIIPLVNMTNIAQKFQGRLTLVADKSTAIVHLELGSLRAEDTAIYYCVRDLPSAGFPAPFDIWGQGTRVTVSA
VL: EIVLTQSPGSLSLSPGARATVSCRASQSLNSASLVWYQQRVGQAPRLLMFGASNRATGIPDRFSGSGSGTDFTLTISRLEPEDFAVYYCQQYAFSPPTFGQGTKVEIK
notes: IgG
B5: M3A08 (antibody, V domains shown)
VH: EVQLVESGGGLVKPGGSLRLSCAASGFSITSYGMHWVRQAPGKGLEWVSSISSSSSYISYRDSVKGRFTVSRDNAGNSLSLQMNSLRGEDTAVYHCARDAGLVPPWMDSWGQGTLVIVSS
VL: QSVLTQPPSVSGAAGQRVTISCTGSSSNLGTGYDVHWYRQQPGTAPKLIMFGNTNRPSGVPGRFSGSRSGTSASLAITGLQADDEADYYCQSYDSSLGGLVFGGGTKLTVL
notes: IgG
B6: M2C11 (antibody, V domains shown)
VH: QVQLVQSGAEVRKPGASVKVSCKASGYTFTSHDINWVRQAPGQGLEWMGWMNPNSDTTGYAQKFQGRVTMARDISMSTAYMELSSLTSEDTAVYYCARGRHNYYTNGPTRDGFDIWGQGTMVTVSS
VL: SYELTQPPSVSVSPGQTATITCSGDDLGNQYANWFQQRPGQSPVLVIYQDNKRPSGIPERFSGSSSGNTATLTISGTQPLDEADYYCQAWDSRTYVFGTGTKVTVL
notes: IgG
B7: M3A01 (antibody, V domains shown)
VH: EVQLVESGGGLVKPGGSLRLSCSVSAFSISGYNMHWVRQAPGKGLEWVSSITGGSNYINYADSVKGRFTISRDNAQNSLYLQMKSLRAEDTAVYYCARETQPSPGSFDSWGQGTLVTVSS
VL: QSVLTQPPSVSGAPGQRVTISCTGSSSNIGAGYDVNWYQQLPGTAPKLLIYGNYNRPSGVPDRFSASKSGTSASLAITGLQAEDEADYWCQSYDTSLSGWIFGGGTKLTVL
notes: IgG
B8: M3E04 (antibody, V domains shown)
VH: EVQLVESGGGLVKPGGSLRLSCAGSGFTFSSYSMNWVRQAPGKGLEWVSSISASSSYIYYADSLKGRFTISRDNAKNSLYLQMNSLRAEDTAVYYCARANYGSGNYYNPKWFDPWGQGTLVTVSS
VL: B7 VL with N36H, L41F, L48V, Y54N, A66G, T78S, W89Y, T95S, W100S
notes: IgG
B9: M2D08 (antibody, V domains shown)
VH: QVQLVESGGGVVQPGRSLRLSCAASGFVFRFSGMHWIRQAPGKGLQWVAHISDDGSQKYYADSVTGRFAISRDNSRNTLFLEMTGLRGDDTAVYYCARGDYGVSYFLAHWGLGELVIVSS
VL: EIVLTQSPATLSLSPGERATLSCRASQNIYNYLAWYQQKPGQAPRLVIYDASNRATGIPARFSGSGSETDFTLTISSLEPEDFAVYYCQQRSDWTFGQGTKLEIK
notes: IgG
B10: M2B06 (antibody, V domains shown)
VH: QVQLQESGPRLVKPSGTLSLTCAVSGASITSSHWWTWVRQPPGKGLEWIGRIFHSGSTNYNPSLKSRVTISLDKSRNQFSLTLTSVTAADTAVYYCARDDQIVVMPAGFDRWGQGALVIVSS
VL: DIQMTQSPSSLSASVGDRVTITCRASQTISSYLNWYQQTPGKAPNLLIYGASRLQGGVPSRFSGSGSGTDFTLTISSLQPEDFAIYFCQQSKSIPYTFGQGTRLEIK
notes: IgG
B11: M3C04 (antibody, V domains shown)
VH: EVQLVQSGAEVKKPGESLKISCKGSGYNFANYWIGWVRQMPGKGLEWMGIIYPGDSDTRRNPSFQGHVTMSVDQSISTAYLQWSSLKASDTAMYYCARPLAVSAFDIWGQGTMVTVSS
VL: DIQMTQSPSSLSASVGDKLTITCRASQSISNYLNWYQQKSGKAPKLLIYAASSLQSGVPSRFSGSGSGTDFTLTISSLQPEDFATYYCQQSASTPHTFGQGTKVEIV
notes: IgG
B12: M7D5 (antibody, V domains shown)
VH: QVQLVQSGAEVKKPGSSVKVSCKASGGTLSNYAISWVRQAPGQGLEWMGGIIPIFGTAMYAHNFQDRVTFTADESTNTVYMAVSRLTSDDTAVYYCAQDRTVTKYAHGLDVWGQGTTVTVSS
VL: DIQMTQSPSSLSASVGDRITITCPASQSLLTYLNWYQQKPGKAPKLLIYSASELPSGVPSRFSGSGSGTEFTLTVTGLQPDDFATYYCQQSHTTPLTFGGGTKVEIKR
notes: IgG
B13: M3C11 (antibody, V domains shown)
VH: QVQLQESGPGLVKPSETLSLTCTVSGGSLSSYCWSWIRQPPGKGLEWIGYIYYSGGTNYNPSLKSRVTISVDTSKNQFSLNLSSVTAADTAVYYCARGEASGYLNYYFDYWGQGTLVAVSS
VL: SYELTQPPSVSVSPGQTASITCSGHKLGDKYAYWYQQKPGQSPVLVIYQDNKRPSGIPERFSGSNSGNTATLTISGTQAMDEADYYCQAWDSGTVFGGGTKLTVL
notes: IgG
B14: M3E10 (antibody, V domains shown)
VH: QVQLVQSGAEVKKPGSSVKVSCKASGGTINSYAISWVRQAPGQGPEWLGGIIPIFGTANYAQNFPGRVTITADASTSTVYMELSSLRSDDTAIYYCARGTRYIAVMVPSMQDYYFFGMDVWGQGTTVTVSS
VL: DIQLTQSPSFLSASVGDRVTITCRASQGISSYLAWYQQKPGQAPKLLIYAASTLQSGVPSRFSGSGSGTEFTLTISSLQPEDFATYYCQQVTSYPFSITFGQGTRLEIK
notes: IgG
B15: M3C06 (antibody, V domains shown)
VH: QVQLVQSGAEVKKPGSSVKVSCKAYGGTLSNYAISWVRQAPGQGLHWMGRIIPVMNVANYADNFQGRVTITADKSTSTAYMELSSLRSEDAAIYYCATARGLGSLEGGDAFDVWGQGTMLTVSS
VL: DIVMTQSPDSVAVSLGERATISCKSSLSLLYSSNNKNYLVWYQQKPGQPPKLLFYWASTRESGVPDRFSASGSGTDFTLTISSLQAEDVAVYYCQQYYSTPITFGQGTRLEIR
notes: IgG
B16: M4A10 (antibody, V domains shown)
VH: QVQLVQSGAEVKKPGASVKVSCKASGYTFNGHYLHWVRQAPGQGLEWMGWINPNSGGTDYAQRFQGRVTMTRGTSISTAYMELSRLTSDDTAVYFCARDNFGFWSASSGRHNWLDSWGQGTLVIVSS
VL: NFMLTQPHSVSESPGKTVTISCTRSTGNIASNYVQWYQQRPGSSPTTVIYEDNQRPSAVPDRFSGSIDSSSNSASLTVSGLRTEDEADYYCQSYDSGHHVVFGGGTKLTVL
notes: IgG

The first test addresses T1, Processed stabilized hMPV PreF trimer (115BV) (human metapneumovirus, strain B2).
T1 construct: also called Processed hMPV PreF trimer; processed PreF
The experiment in a line: BLI, ratio to unprocessed PreF trimer. For orientation: BLI is a label-free optical method that tracks binding on a fibre tip over time.
On to B1, for which the “processed/unprocessed PreF trimer binding ratio” value is 1.06.

For the molecule B2, the “processed/unprocessed PreF trimer binding ratio” value is 1.05.

As to B3, the “processed/unprocessed PreF trimer binding ratio” value came to 1.1.

Take B4: the “processed/unprocessed PreF trimer binding ratio” value stood at 1.16.

In the case of B5, the “processed/unprocessed PreF trimer binding ratio” value is 0.59.

As for B6, the “processed/unprocessed PreF trimer binding ratio” value is 1.04.

For the molecule B7, the “processed/unprocessed PreF trimer binding ratio” value is 1.04.

In the case of B8, the “processed/unprocessed PreF trimer binding ratio” value came out at 0.13.

On to B9, for which the “processed/unprocessed PreF trimer binding ratio” value was determined as 0.44.

For the molecule B10, the “processed/unprocessed PreF trimer binding ratio” value worked out at 1.03.

As to B11, the “processed/unprocessed PreF trimer binding ratio” value amounted to 0.82.

B12: the “processed/unprocessed PreF trimer binding ratio” value stood at 1.17.

Take B13: the “processed/unprocessed PreF trimer binding ratio” value is 0.25.

Turning to B14, the “processed/unprocessed PreF trimer binding ratio” value stood at 0.48.

Regarding B15, the “processed/unprocessed PreF trimer binding ratio” value came out at 0.93.

Regarding B16, the “processed/unprocessed PreF trimer binding ratio” value was 0.71.

The next test has as its target T2, hMPV PostF trimer (human metapneumovirus, strain B2).
T2 construct: also called MPV PostF (dPFv1)
Nature of the test: BLI, mAb on anti-human Fc sensor.
In the case of B1, the Octet binding response came to 0.43 nm.

With B2, the Octet binding response came to 0.454 nm.

B3 registered an Octet binding response of 0.503 nm.

Consider B4, for which the Octet binding response amounted to 0.436 nm.

Consider B5, for which the Octet binding response is -0.0217 nm.

As for B6, the Octet binding response was -0.03 nm.

With B7, the Octet binding response was -0.062 nm.

As to B8, the Octet binding response is 0.0262 nm.

On to B9, for which the Octet binding response is -0.0414 nm.

Molecule B10 came in with an Octet binding response of 0.436 nm.

Turning to B11, the Octet binding response is 0.409 nm.

B12: the Octet binding response was determined as 0.0826 nm.

As to B13, the Octet binding response was determined as 0.433 nm.

For B14, the Octet binding response was 0.0082 nm.

B15 came in with an Octet binding response of -0.0338 nm.

In the case of B16, the Octet binding response is -0.0388 nm.

Another test has as its target T3, Unprocessed hMPV PreF trimer (human metapneumovirus, strain B2).
T3 construct: also called Unprocessed hMPV WT PreF trimer; unprocessed hMPV PreF trimeric antigen
Nature of the test: BLI, mAb on anti-human Fc sensor.
On to B1, for which the Octet binding response was 0.41 nm.

The molecule B2 showed an Octet binding response of 0.418 nm.

In turn, B3 returned an Octet binding response of 0.425 nm.

The molecule B4 showed an Octet binding response of 0.408 nm.

Molecule B5 registered an Octet binding response of 0.422 nm.

The molecule B6 showed an Octet binding response of 0.349 nm.

Consider B7, for which the Octet binding response amounted to 0.251 nm.

Turning to B8, the Octet binding response worked out at 0.3 nm.

For B9, the Octet binding response was 0.416 nm.

Molecule B10 returned an Octet binding response of 0.389 nm.

Regarding B11, the Octet binding response is 0.379 nm.

Take B12: the Octet binding response was determined as 0.296 nm.

B13 came in with an Octet binding response of 0.317 nm.

For B14, the Octet binding response is 0.351 nm.

For B15, the Octet binding response was 0.208 nm.

The molecule B16 yielded an Octet binding response of 0.325 nm.

A further test deals with T1, Processed stabilized hMPV PreF trimer …. Nature of the test: BLI, mAb on anti-human Fc sensor.
Turning to B1, the Octet binding response stood at 0.436 nm.

Molecule B2 came in with an Octet binding response of 0.44 nm.

Regarding B3, the Octet binding response came out at 0.466 nm.

B4 displayed an Octet binding response of 0.472 nm.

Take B5: the Octet binding response amounted to 0.249 nm.

B6 had an Octet binding response of 0.362 nm.

Molecule B7 displayed an Octet binding response of 0.261 nm.

For B8, the Octet binding response was determined as 0.0401 nm.

In the case of B9, the Octet binding response amounted to 0.182 nm.

Turning to B10, the Octet binding response came out at 0.401 nm.

For the molecule B11, the Octet binding response is 0.31 nm.

B12 registered an Octet binding response of 0.347 nm.

As to B13, the Octet binding response worked out at 0.0794 nm.

As for B14, the Octet binding response was found to be 0.17 nm.

B15 showed an Octet binding response of 0.195 nm.

Molecule B16 came in with an Octet binding response of 0.23 nm.
